Measurements reported in patent US20230174617A1.

Columns and labels:
[1] = molecular target: recombinant human neonatal Fc receptor (rhFcRn, R&D systems) (human) (UniProt P55899); experiment: SPR, rhFcRn on CM5, analyte in PBST pH 6.0, steady state affinity
[2] = molecular target: recombinant human neonatal Fc receptor (rhFcRn, R&D systems) (human) (UniProt P55899); experiment: SPR (Biacore 8K), rhFcRn amine-coupled on CM5, analyte in PBST pH 6.0, steady state affinity

Kd [1] | Kd [2] | Substance
2390 nM |  | Rituximab (antibody)
 | 2090 nM | dulaglutide (trade name Trulicity) (Fc fusion)
